Data taken from patent publication US20130209454A1 (CALIFORNIA INSTITUTE OF TECHNOLOGY, published 2013).

Tests used:
Experiment in all cases: cell-based or functional assay
[1] = target: HIV-1 strain 3415.v1.c1 envelope (gp120) (HIV-1)
[2] = target: HIV-1 strain 6535.3 envelope (gp120) (HIV-1)
[3] = target: HIV-1 strain R1166.c01 envelope (gp120) (HIV-1)
[4] = target: HIV-1 strain ZM233M.PB6 envelope (gp120) (HIV-1)
[5] = target: HIV-1 strain P0402_c2_11 envelope (gp120) (HIV-1)
[6] = target: HIV-1 strain 231965.c01 envelope (gp120) (HIV-1)
[7] = target: HIV-1 strain CAP210.2.00.E8 envelope (gp120) (HIV-1)
[8] = target: HIV-1 strain 0815.v3.c3 envelope (gp120) (HIV-1)
[9] = target: HIV-1 strain 0330.v4.c3 envelope (gp120) (HIV-1)
[10] = target: HIV-1 strain T278-50 envelope (gp120) (HIV-1)
[11] = target: HIV-1 strain 6811.v7.c18 envelope (gp120) (HIV-1)
[12] = target: HIV-1 strain Q842.d12 envelope (gp120) (HIV-1)
[13] = target: HIV-1 strain 231966.c02 envelope (gp120) (HIV-1)
[14] = target: HIV-1 strain Du422.1 envelope (gp120) (HIV-1)
[15] = target: HIV-1 strain PVO.4 envelope (gp120) (HIV-1)
[16] = target: HIV-1 strain Du156.12 envelope (gp120) (HIV-1)
[17] = target: HIV-1 strain 1006_11_C3_1601 envelope (gp120) (HIV-1)
[18] = target: HIV-1 strain Q259.d2.17 envelope (gp120) (HIV-1)
[19] = target: HIV-1 strain T251-18 envelope (gp120) (HIV-1)
[20] = target: HIV-1 strain 3718.v3.c11 envelope (gp120) (HIV-1)
[21] = target: HIV-1 strain Q23.17 envelope (gp120) (HIV-1)
[22] = target: HIV-1 strain P1981_C5_3 envelope (gp120) (HIV-1)
[23] = target: HIV-1 strain THRO4156.18 envelope (gp120) (HIV-1)
[24] = target: HIV-1 strain HIV-16845-2.22 envelope (gp120) (HIV-1)
[25] = target: HIV-1 strain C1080.c03 envelope (gp120) (HIV-1)
[26] = target: HIV-1 strain WEAU_d15_410_787 envelope (gp120) (HIV-1)
[27] = target: HIV-1 strain CAP45.2.00.G3 envelope (gp120) (HIV-1)
[28] = target: HIV-1 strain Ce1176_A3 envelope (gp120) (HIV-1)
[29] = target: HIV-1 strain CNE20 envelope (gp120) (HIV-1)
[30] = target: HIV-1 strain RHPA4259.7 envelope (gp120) (HIV-1)
[31] = target: HIV-1 strain T255-34 envelope (gp120) (HIV-1)
[32] = target: HIV-1 strain ZM135M.PL10a envelope (gp120) (HIV-1)
[33] = target: HIV-1 strain 3817.v2.c59 envelope (gp120) (HIV-1)
[34] = target: HIV-1 strain 6480.v4.c25 envelope (gp120) (HIV-1)
[35] = target: HIV-1 strain ZM249M.PL1 envelope (gp120) (HIV-1)
[36] = target: HIV-1 strain 620345.c01 envelope (gp120) (HIV-1)
[37] = target: HIV-1 strain ZM197M.PB7 envelope (gp120) (HIV-1)
[38] = target: HIV-1 strain Ce0393_C3 envelope (gp120) (HIV-1)
[39] = target: HIV-1 strain C2101.c01 envelope (gp120) (HIV-1)
[40] = target: HIV-1 strain CNE53 envelope (gp120) (HIV-1)
[41] = target: HIV-1 strain ZM247v1(Rev-) envelope (gp120) (HIV-1)

B1: NIH45-46 IgG (antibody, V domains shown)
VH: QVRLSQSGGQMKKPGESMRLSCRASGYEFLNCPINWIRLAPGRRPEWMGWLKPRGGAVNYARKFQGRVTMTRDVYSDTAFLELRSLTSDDTAVYFCTRGKYCTARDYYNWDFEHWGRGAPVTVSS
VL: EIVLTQSPATLSLSPGETAIISCRTSQSGSLAWYQQRPGQAPRLVIYSGSTRAAGIPDRFSGSRWGADYNLSISNLESGDFGVYYCQQYEFFGQGTKVQVDI
neutralization IC80 [1]: 0.086 µg/mL | neutralization IC80 [2]: 0.54 µg/mL | neutralization IC80 [3]: 1.21 µg/mL | neutralization IC80 [4]: 14.2 µg/mL | neutralization IC80 [5]: 0.214 µg/mL | neutralization IC80 [6]: 0.126 µg/mL | neutralization IC80 [7]: > 50 µg/mL | neutralization IC80 [8]: 0.052 µg/mL | neutralization IC80 [9]: 0.3 µg/mL | neutralization IC80 [10]: > 50 µg/mL | neutralization IC80 [11]: 0.113 µg/mL | neutralization IC80 [12]: 0.073 µg/mL | neutralization IC80 [13]: 9.64 µg/mL | neutralization IC80 [14]: > 50 µg/mL | neutralization IC80 [15]: 0.41 µg/mL | neutralization IC80 [16]: 0.054 µg/mL | neutralization IC80 [17]: 0.196 µg/mL | neutralization IC80 [18]: 0.154 µg/mL | neutralization IC80 [19]: 3.68 µg/mL | neutralization IC80 [20]: > 50 µg/mL | neutralization IC80 [21]: 0.5 µg/mL | neutralization IC80 [22]: 0.24 µg/mL | neutralization IC80 [23]: 8.22 µg/mL | neutralization IC80 [24]: 22.6 µg/mL | neutralization IC80 [25]: 11.6 µg/mL | neutralization IC80 [26]: 0.015 µg/mL | neutralization IC80 [27]: > 50 µg/mL | neutralization IC80 [28]: 3.17 µg/mL | neutralization IC80 [29]: > 50 µg/mL | neutralization IC80 [30]: 0.047 µg/mL | neutralization IC80 [31]: 3.44 µg/mL | neutralization IC80 [32]: 2.79 µg/mL | neutralization IC80 [33]: > 50 µg/mL | neutralization IC80 [34]: 0.1 µg/mL | neutralization IC80 [35]: 0.053 µg/mL | neutralization IC80 [36]: > 50 µg/mL | neutralization IC80 [37]: 0.55 µg/mL | neutralization IC80 [38]: 0.93 µg/mL | neutralization IC80 [39]: 31.4 µg/mL | neutralization IC80 [40]: 0.039 µg/mL | neutralization IC80 [41]: 24.5 µg/mL
